According to the DeepSol protein solubility set:

Assay: soluble on expression in E. coli; label from the status in PepcDB or PDB records

Sequence | soluble on expression in E. coli
MKHIIILGDGMADWPVKSLGDKTLLQYAKTPYMDKLARMGRNGRLITVAEGFHPGSEVANMSVLGYNLPKVYEGRGPLEAASIGVDLKPGEMAMRCNLICVEGEILKNHSSGHISTEEADVLIQYLQEKLGNDRVRFHTGVQYRHLLVIKGGNKELDCTPPHDVPLKPFRPLMVKPLVPEAQETADLINDLILKSQELLKNHPLNLKRMSEGKDPANSIWPWSPGYRPQMPAFSETFPQVKKGAVISAVDLINGIGYYAGLRRIAVEGATGLYNTNYENKVAAALEALKTDDFVYLHIEASDEAGHEGDIDLKLLTIENLDKRAVGPIYEAVKDWDEPVAIAVLPDHPTPCELRTHTSDPIPFLIWYPGIEPDEVQTYDEISACDGSYGVLKEDEFIKEFMNQKNIQ | not soluble
MKHTIGILGGMGPAATADMLEKFVELRHASCDQQHIPLIVSSIPDIPDRTACLLSGGPSPYRYLERYLHMLEDAGAECIVIPCNTAHYWFDDLQNVAKARMISILDATLGDIPPSARHVGLLATNATLATGLYQKKALARGLTLIQPEDAGQALVMQAIYTLKRGDKTAAQALLLPQIDSLIARGAQAIIMGCTEIPLIVAGHERAIACPMIDSTASLVRAAIRWYESWPDTRASLTGEQRLTA | not soluble
MKHVKKEKAEKLEKERQRHIGKPLLGGPFSLTTHTGERKTDKDYLGQWLLIYFGFTHCPDVCPEELEKMIQVVDEIDSITTLPDLTPLFISIDPERDTKEAIANYVKEFSPKLVGLTGTREEVDQVARAYRVYYSPGPKDEDEDYIVDHTIIMYLIGPDGEFLDYFGQNKRKGEIAASIATHMRPYRKKS | soluble
MKIAIPKERRPGEDRVAISPEVVKKLVGLGFEVIVEQGAGVGASITDDALTAAGATIASTAAQALSQADVVWKVQRPMTAEEGTDEVALIKEGAVLMCHLGALTNRPVVEALTKRKITAYAMELMPRISRANSMDILSSQSNLAGYRAVIDGAYEFARAFPMMMTAAGTVPPARVLVFGVGVAGLQAIATAKRLGAVVMATDVRAATKEQVESLGGKFITVDDEAMKTAETAGGYAKEMGEEFRKKQAEAVLKELVKTDIAITTALIPGKPAPVLITEEMVTKMKPGSVIIDLAVEAGGNCPLSEPGKIVVKHGVKIVGHTNVPSRVAADASPLFAKNLLNFLTPHVDKDTKTLVMKLEDETVSGTCVTRDGAIVHPALTGQGA | soluble
MKIALMMENSQASKNAIIYNELSAVANEKGFPVFNVGMCDENDHHLTYIHLGIMASILLNANAVDFVVTGCGTGQGALMSLNIHPGVICGYCIDPADAFLFAQINNGNALSLPFAKGFGWGAELNVRFIFEKAFTGRKGEGYPPERKAPQVRNAGILNQVKAAVVKENYLDTLRAIDPELVKTAVSGPRFQQCLFENGQNKEIEAFVREMLG | not soluble
MKIALSFLFLTSTFSNAGKIGRLQSVAVSGQLNCLGKPAVGVRIDLMESDNNGEETGIIDDNDFMGYTYTDSAGFFNMSGSEVEISGIEPYVNIFHKCNDGLSPCQRQLRVDIPKSATASGPAPNETFSIGTLELSSRKVIGERRSCAYRNLTQTS | not soluble
MKIAVVGCDGFGKVHLRAMRNISGIEYYVFSRNEEKARECMKEFNAEGYFTRYEDVIKSNVDIVDLLVSHDQHYPMGVMAMKAGKHLMLEKPIARTIEEAMGLINTSKDTKRKFMVLEQFYFESSVRKAKELLPRLGNLSLIIVRSIHLYQ | not soluble
MKICLQAGAVKQIENYFSISTDGVEIRIWFLTDSVVRIRAGFDGDFVEESYSLVTTAWEDRMDMFMKHYRKRIQTAEAQLTDGLEKAVIQGKVLRVEVEKNPFRICVYDAENTQIHADIVDLAYMEDSNNRRIHTSEITEDDCFY | not soluble
MKIDLNADLGEGCASDAELLTLVSSANIACGFHAGDAQIMQACVREAIKNGVAIGAHPSFPDRENFGRSAMQLPPETVYAQTLYQIGALATIARAQGGVMRHVKPHGMLYNQAAKEAQLADAIARAVYACDPALILVGLAGSELIRAGKQYGLTTREEVFADRGYQADGSLVPRSQSGALIENEEQALAQTLEMVQHGRVKSITGEWATVAAQTVCLHGDGEHALAFARRLRSAFAEKGIVVAALEHHHHHH | soluble
MKIEVVSALPHSTVHSAVLSRRHRSVICAGPYEVLPLEGCSEPLPSTSTLSELPIECLRLSTDERTIGAATNAILKVADIITGHEVRNLTGHTLPITSLAASKFNPYCWYTGSSDCDWTQWDTRMNPSKIFGSKTPGVVRSIALSPGDRYVAVGTDETIQIFDARQREFIKTFNCSGHALELHPSDVLLSSVGHDRIVRFFCLETFEMISQSDPFLDDIQASAFDTHVMIAATNDSINLLTWEPCCDILTTVPLKNVEKVVNVNANGLDLDFICIGDNTERLEMRTYAIEELLSYSPSHELCGSIYEEDEDVDNSPIDEVKALPELTELSNLPPRSPGLSCEETETSASPVNSSSSHSSPTSPVKPAPVKHRSASQKLPGKSTKTLNPKPAGSTRSVTPVSTKPPRTFGTAKSVIVSSKPSLSGYNNRANPSPSMSDLRTTKSMAGSTTSLLSERAPKKRSTSSRRNQEPITITYIGRPRTPSEGDVASTVSSSTSRNRRPSPSVAKKTSPPSIYAITSSPAKRASSTASGPTARRQNSTSSVTSTTSAKTPVGVWGACIETVHDIGIVAKKENRNIRRLKMLTSRRTSNVDIPPEVCSDEQLVLTATRILSRRNDWSLNSCHAYLPVIIDNIASVDVTNRAIALEGLAAIADTLGERLVKFASMNSHRIGVDVAAEERAEKAKACVQHLRSLVKKRDWYYKQLDEPSILKLDPILELLKKI | not soluble
MKIGIIGAGLGGLLSGAILSKEHSITIYEKLPFVGGRFTNIPYKGFQLTTGALHMIPHGNEGYLAQTLRRAGSNVKIVNSEPDGYFRINGKNHEYKDIFGLVSAKDKLKALKLAASLKLGKIDKNMPFGEFLEDIPLALDVGNSFSGWALSLNAYDTPMSEIIEISKLYHKFGGPGIPVGGCKGVIDSLVEIINKNGGKIYTSHAIEKIEVEENNVFLDSEQFDIVISNASPKLTEKMSNIKFIEKEPVPSKGIKINVASKLSLVDGASVIFTTDCERINGLNQPSNVDRSLAKEDYNLIMLHATQIKNNTKEEISLALNDIESLFGGKDYEVISIQSYGNGWPVNHASNGTDLNPIVKDNLLLVGDGVKGVGGIEVEGVAMSVIAVLNHIEKLKK | soluble
MKIGIIGATGKAGSRILKEALDRGHEVTAIVRNAAKITEENVKVLEKDVFSLTSNDLQAFDVVVNAFGAPAGHDHLHVDAGNVLIEAMKGAPNTKLVVVGGAGSLFVDEEKTTRVFETPGFPEEYLATAQNQGKNLEILQQTNDITWTFISPSALFALGKRTGSYKAGKDNLLVNAKGDSYVSYEDFAVAALDEIENPKHVNERFTVVSEAELEHHHHHH | soluble
MKIGIVTGIPGVGKSTVLAKVKEILDNQGINNKIINYGDFMLATALKLGYAKDRDEMRKLSVEKQKKLQIDAAKGIAEEARAGGEGYLFIDTHAVIRTPSGYLPGLPSYVITEINPSVIFLLEADPKIILSRQKRDTTRNRNDYSDESVILETINFARYAATASAVLAGSTVKVIVNVEGDPSIAANEIIRSMK | soluble
MKIHHIGPMGVNPYQRQLAKTERLAAEKAPRDQVEISKEAKELQEAASWEQARQAKLEELRQQIENGAYQVDPRAVAKRMIEYYRNHR | not soluble
MKIIDCRNMACPAPVVTTKRALEEAGGETVQVLVDPGAPRENVIRFAENRGFAVSEVEADNGFALTITSPGSAPVEPVRTVAGKGGKTVMLVASDRLGDGPEELGRLLMKNFIITLLDLAELPDRMLFVNTGVLLTTEGSEVLEALQSLGNRGVEVLSCGVCLDFFHRKEKLVAGSVTNMFTIAESLLGAGSVVRLLEHHHHHH | soluble
MKIIKGAFPVLITPMDEFQEINWNGVKQNVNYFIEQKVAGIIINGSTGEFVSLSKEERFKMVETVLKEVNGRIPVIVGTAAETTKETIEFTKHAETHGADCALIINSYYCKPKEEEIYFHFKEISNAVNIPIMLYNNPFTSGVDMSTELMLRIGKDCENVTHIKESSGDIRKARDLVRQGEGAFQVFCGSEDLVMESYLVGATGWVSVAGNVVPGLVTKMYEHFQNGELEKAWEINDAILPLCEFLEGSGKYVQIVKRSMELQGQAGGPSRYPRLGLTEEEDQKLQAIISKIAAHAAV | not soluble
MKIKTRFAPSPTGYLHVGGARTALYSWLFARNHGGEFVLRIEDTDLERSTPEAIEAIMDGMNWLSLEWDEGPYYQTKRFDRYNAVIDQMLEEGTAYKCYCSKERLEALREEQMAKGEKPRYDGRCRHSHEHHADDEPCVVRFANPQEGSVVFDDQIRGPIEFSNQELDDLIIRRTDGSPTYNFCVVVDDWDMEITHVIRGEDHINNTPRQINILKALKAPVPVYAHVSMINGDDGKKLSKRHGAVSVMQYRDDGYLPEALLNYLVRLGWSHGDQEIFTREEMIKYFTLNAVSKSASAFNTDKLLWLNHHYINALPPEYVATHLQWHIEQENIDTRNGPQLADLVKLLGERCKTLKEMAQSCRYFYEDFAEFDADAAKKHLRPVARQPLEVVRDKLAAITDWTAENVHHAIQATADELEVGMGKVGMPLRVAVTGAGQSPALDVTVHAIGKTRSIERINKALDFIAERENQQ | soluble
MKILLFICGEGLGHTGRCLALGKEFLAAGHEVNFGAYGYSKGLVQKTGYSAYEIPSEIKLAGEAGTFDIRKSIKETLNNLSPSGFRKILRLIEKLDPDVVLSDGYYTGILAAQKRKVPVYFIGHQFNMEEFFWKKGLFAGIAGIFVKRFYNYVFSSVDGIIVPDYPLPYSVNRKNFTISRAVNDNIFFSGPLIRCRYQEAGEKAFKRPNVLSTIGAFGYRAAVFRNVLEAAKLDPSIYYTFISGPEIDPEQFSKVPENVEFTGFTENPFPYYKGSDLVITAGGHGTIMESLAFGLPILSFPDEKHAEQENNASVLEEAGYGKRMSYLTPPEVILACIREIFEDENYSKKTRRLMELAEVLDGPAAVRKFLEEKHRGLEHHHHHH | not soluble
MKILLVFDFDNTIIDDNSDTWIVQCAPNKKLPIELRDSYRKGFWTEFMGRVFKYLGDKGVREHEMKRAVTSLPFTPGMVELFNFIRKNKDKFDCIIISDSNSVFIDWVLEAASFHDIFDKVFTNPAAFNSNGHLTVENYHTHSCNRCPKNLCKKVVLIEFVDKQLQQGVNYTQIVYIGDGGNDVCPVTFLKNDDVAMPRKGYTLQKTLSRMSQNLEPMEYSVVVWSSGVDIISHLQFLIKD | not soluble
MKILYIVLDGAADSPTSPRKTLEEASKPNIDSLGSHAVCGMVYTVKPGVAPQSDYATLSLLGYNPDEYYPGRGPLEAFGAGIEMRRGDIALRANFATVDPGTLRIIDRRVGRSLTSREARELASAVDGMELEDGEGTALFRATIGHRGVLVLRHRSKPLSDAISNTDPAYERRGRFSVALEKYEPFIKLSNPLVEDEAAVLAARMLNEFTLKAVEILDSHPVNLAREKRGLLKANAILSRDAGGLPEEKPPSFQERFGLRGASIVEMVVERGISRYIGLDDIRVEIEGRAREEVYREEAARAVEALETHDLVYVHLKGPDEPGHDGSFEGKIRAVEDIDKHFFAPLLDRLSSAGLEPAFVVTSDHATPWDVGAHSGDPVPLMISHQSIQ | not soluble
